For one assay, the target named is T1, endogenous HSPA9 (human, UniProt P38646 47-679).
T1 construct: Endogenous protein co-precipitated from cell lysate
The experiment in a line: anti-Flag co-immunoprecipitation from MCF7 cell lysates, Western blot. (In general: In western blotting, separated proteins are transferred to a membrane and probed.)

The target in assay [1] is T2, endogenous IP3R1 (inositol 1,4,5-trisphosphate receptor 1) (human, UniProt Q14643 1-2758, limits assumed).
T2 construct: Endogenous protein co-precipitated from cell lysate; also called ITPR1
T2 sequence (Q14643 whole entry): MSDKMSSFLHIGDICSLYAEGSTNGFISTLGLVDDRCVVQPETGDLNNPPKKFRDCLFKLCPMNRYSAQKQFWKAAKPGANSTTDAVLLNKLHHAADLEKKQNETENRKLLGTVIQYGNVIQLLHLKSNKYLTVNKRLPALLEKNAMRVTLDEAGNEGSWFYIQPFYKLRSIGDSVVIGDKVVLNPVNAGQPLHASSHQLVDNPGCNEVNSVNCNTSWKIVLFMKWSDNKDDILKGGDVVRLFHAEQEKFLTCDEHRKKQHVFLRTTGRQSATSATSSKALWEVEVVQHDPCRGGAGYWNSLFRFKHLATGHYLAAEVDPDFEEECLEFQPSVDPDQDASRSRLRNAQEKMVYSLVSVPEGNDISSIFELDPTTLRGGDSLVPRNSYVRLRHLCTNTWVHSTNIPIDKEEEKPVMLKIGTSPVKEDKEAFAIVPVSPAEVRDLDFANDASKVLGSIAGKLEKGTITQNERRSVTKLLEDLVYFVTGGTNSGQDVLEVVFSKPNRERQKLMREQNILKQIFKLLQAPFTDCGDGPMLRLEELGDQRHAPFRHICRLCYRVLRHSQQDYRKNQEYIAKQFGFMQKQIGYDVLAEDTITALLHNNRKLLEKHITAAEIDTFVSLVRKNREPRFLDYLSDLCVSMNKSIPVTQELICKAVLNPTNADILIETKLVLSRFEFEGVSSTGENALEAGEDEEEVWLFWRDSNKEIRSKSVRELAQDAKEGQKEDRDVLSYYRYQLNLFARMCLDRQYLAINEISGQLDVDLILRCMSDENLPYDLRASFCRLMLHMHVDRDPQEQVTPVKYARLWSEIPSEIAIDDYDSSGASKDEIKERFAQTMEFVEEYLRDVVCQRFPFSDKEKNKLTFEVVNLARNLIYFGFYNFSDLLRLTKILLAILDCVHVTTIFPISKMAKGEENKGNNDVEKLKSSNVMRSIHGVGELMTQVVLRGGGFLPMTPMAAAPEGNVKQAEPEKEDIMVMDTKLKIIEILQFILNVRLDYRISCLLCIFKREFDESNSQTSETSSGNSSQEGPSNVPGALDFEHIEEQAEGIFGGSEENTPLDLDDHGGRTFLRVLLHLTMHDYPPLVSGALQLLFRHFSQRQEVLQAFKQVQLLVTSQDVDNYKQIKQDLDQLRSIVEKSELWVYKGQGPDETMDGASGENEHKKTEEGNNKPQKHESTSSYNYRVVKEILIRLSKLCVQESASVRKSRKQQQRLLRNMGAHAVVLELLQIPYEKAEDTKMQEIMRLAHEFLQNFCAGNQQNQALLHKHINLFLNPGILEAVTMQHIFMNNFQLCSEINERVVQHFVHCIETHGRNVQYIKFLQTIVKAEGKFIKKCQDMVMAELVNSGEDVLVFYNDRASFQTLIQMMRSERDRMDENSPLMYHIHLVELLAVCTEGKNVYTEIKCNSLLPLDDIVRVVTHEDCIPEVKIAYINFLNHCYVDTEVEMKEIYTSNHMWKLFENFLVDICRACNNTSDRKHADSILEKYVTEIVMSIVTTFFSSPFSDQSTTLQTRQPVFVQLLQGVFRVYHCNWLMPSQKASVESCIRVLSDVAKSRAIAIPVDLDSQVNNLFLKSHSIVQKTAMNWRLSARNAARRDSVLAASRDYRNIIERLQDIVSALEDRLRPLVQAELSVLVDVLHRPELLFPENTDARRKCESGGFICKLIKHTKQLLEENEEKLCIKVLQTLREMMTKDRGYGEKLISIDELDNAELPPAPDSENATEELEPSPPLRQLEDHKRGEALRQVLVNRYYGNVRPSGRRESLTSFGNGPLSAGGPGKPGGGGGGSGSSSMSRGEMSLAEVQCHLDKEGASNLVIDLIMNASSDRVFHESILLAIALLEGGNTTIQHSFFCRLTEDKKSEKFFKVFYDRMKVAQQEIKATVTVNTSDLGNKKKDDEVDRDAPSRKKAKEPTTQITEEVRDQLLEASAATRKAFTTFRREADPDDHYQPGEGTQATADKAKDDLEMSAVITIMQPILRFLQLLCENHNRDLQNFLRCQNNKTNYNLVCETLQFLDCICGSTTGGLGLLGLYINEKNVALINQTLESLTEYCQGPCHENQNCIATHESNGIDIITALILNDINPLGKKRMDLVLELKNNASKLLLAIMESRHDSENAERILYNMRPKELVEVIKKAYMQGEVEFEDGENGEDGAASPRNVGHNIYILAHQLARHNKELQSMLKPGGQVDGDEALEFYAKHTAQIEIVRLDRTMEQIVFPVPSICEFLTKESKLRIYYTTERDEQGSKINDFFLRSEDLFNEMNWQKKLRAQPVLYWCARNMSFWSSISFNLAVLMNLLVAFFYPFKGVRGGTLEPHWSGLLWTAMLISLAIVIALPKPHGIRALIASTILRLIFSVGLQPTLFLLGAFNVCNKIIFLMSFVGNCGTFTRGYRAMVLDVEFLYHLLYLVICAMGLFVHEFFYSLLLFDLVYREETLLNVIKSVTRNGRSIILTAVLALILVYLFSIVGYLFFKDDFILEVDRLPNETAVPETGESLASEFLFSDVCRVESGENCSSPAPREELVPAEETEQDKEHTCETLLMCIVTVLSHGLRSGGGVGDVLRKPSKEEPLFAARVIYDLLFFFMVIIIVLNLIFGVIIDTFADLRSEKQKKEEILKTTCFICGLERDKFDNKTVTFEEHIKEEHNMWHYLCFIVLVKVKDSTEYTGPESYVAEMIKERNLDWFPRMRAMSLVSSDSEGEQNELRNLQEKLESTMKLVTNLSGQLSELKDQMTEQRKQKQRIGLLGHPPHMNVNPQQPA
Nature of the assay: anti-Flag M2 resin immunoprecipitation from MCF7 cells, Western blot.

The target in assay [2] is T3, endogenous IP3R3 (inositol 1,4,5-trisphosphate receptor 3) (human, UniProt Q14573 1-2671).
T3 construct: Endogenous protein co-precipitated from cell lysate; also called ITPR3
The description is as above.

For assay [3], the target named is T4, GST-CARM1 fusion protein (glutathione S-transferase tagged co-activator associated arginine methyltransferase … (UniProt Q86X55 1-608)).
T4 construct: Expressed in E. coli BL-21, purified on glutathione sepharose; also called GST tagged CARM1; not shown: glutathione S-transferase (GST) tag
T4 sequence (looked up): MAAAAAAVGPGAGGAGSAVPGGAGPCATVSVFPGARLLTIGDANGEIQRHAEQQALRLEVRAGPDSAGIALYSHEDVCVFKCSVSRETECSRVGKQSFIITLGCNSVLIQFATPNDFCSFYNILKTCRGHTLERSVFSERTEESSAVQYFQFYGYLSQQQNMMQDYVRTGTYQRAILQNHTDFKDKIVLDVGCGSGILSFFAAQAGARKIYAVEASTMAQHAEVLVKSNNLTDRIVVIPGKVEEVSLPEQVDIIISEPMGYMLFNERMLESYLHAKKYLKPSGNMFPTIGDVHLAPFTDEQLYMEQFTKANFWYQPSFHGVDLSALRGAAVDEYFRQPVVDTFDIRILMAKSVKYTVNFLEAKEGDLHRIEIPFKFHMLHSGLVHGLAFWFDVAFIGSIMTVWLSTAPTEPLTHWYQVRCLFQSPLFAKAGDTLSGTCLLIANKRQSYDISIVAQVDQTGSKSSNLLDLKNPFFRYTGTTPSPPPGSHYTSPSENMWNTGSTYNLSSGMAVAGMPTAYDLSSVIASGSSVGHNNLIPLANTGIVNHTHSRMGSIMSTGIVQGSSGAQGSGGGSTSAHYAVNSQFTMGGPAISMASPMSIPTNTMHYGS
The experiment in a line: in vitro interaction assay, in vitro translated Flag-PKM2 truncation with GST-CARM1. As to the method: Flag-tagged full length PKM2 and its truncations constructs were translated by T7 Quick Coupled Translation/Transcription system (Promega). […] The beads were washed 4 times with binding buffer, and recombinant proteins were eluted with 500 μg/ml 3× Flag peptides. Samples were analyzed by SDS-PAGE and Western blotting.

T1 sequence (P38646 47-679 limits assumed): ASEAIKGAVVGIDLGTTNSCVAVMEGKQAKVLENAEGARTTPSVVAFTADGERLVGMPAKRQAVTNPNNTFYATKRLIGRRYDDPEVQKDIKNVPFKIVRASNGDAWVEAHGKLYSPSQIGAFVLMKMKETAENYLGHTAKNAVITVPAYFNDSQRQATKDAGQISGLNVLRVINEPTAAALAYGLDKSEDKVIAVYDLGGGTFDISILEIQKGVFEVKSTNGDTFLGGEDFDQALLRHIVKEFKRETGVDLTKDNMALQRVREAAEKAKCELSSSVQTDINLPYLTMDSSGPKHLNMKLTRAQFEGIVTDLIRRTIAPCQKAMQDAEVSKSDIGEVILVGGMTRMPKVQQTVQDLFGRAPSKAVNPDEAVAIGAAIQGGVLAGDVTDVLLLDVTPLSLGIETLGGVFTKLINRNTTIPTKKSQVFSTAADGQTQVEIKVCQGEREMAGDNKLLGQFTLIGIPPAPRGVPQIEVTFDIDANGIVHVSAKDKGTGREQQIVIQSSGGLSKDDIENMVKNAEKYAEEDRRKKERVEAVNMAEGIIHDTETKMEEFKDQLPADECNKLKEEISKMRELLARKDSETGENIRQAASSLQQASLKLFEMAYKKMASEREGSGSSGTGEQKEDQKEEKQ

B1: Flag-tagged PKM1 (pyruvate kinase M1) (enzyme)
chain: not shown
notes: Purified recombinant protein in the GST pull-down; expressed in MCF7 or HEK293T PKM2 KO cells in the co-immunoprecipitations; also called Flag-PKM1; recombinant PKM1; not shown: Flag tag
As for B1, the binding result in the assay with endogenous HSPA9 is on record as “no binding”.

B2: Flag-tagged PKM2^mut (R445K, R447K and R455K), methylation-defective PKM2 (enzyme)
chain: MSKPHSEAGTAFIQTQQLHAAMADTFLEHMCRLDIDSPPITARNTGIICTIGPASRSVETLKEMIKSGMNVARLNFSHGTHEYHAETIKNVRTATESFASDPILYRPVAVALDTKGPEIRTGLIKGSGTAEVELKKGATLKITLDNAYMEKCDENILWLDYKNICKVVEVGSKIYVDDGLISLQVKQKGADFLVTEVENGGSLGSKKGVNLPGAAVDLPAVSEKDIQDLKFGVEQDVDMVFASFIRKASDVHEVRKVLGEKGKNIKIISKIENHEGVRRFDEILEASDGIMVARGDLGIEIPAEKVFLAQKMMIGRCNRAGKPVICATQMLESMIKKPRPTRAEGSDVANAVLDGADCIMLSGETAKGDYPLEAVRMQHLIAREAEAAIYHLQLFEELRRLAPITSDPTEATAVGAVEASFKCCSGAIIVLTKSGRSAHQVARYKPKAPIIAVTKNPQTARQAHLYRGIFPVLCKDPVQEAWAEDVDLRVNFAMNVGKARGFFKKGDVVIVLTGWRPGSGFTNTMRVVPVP
notes: Stably expressed in MCF7 (and MDA-MB-231) PKM2 KO cells; precipitated with anti-Flag M2 resin; also called PKM2 R445/447/455K; not shown: left out
With B2, the binding result in assay [1] and in assay [2] was “no binding” throughout.

B3: truncated Flag-PKM2 with truncation of both the C domain and the N/A1 domain (enzyme)
chain: not shown
notes: In vitro translated; also called 48 (as printed, probably delta-8); not shown: Flag tag
B3: in assay [3], the binding result is listed as “no binding”.

The values above are taken from patent US20200276130A1 (WISCONSIN ALUMNI RESEARCH FOUNDATION, published 2020).
